Reference: patent publication US20130059773

Target: recombinant PCNA (human PCNA cDNA, produced in E. coli from plasmid PETPCNA, purified)

B1: procaspase-9 (protein)
chain: MDEADRRLLRRCRLRLVEELQVDQLWDALLSRELFRPHMIEDIQRAGSGSRRDQARQLIIDLETRGSQALPLFISCLEDTGQDMLASFLRTNRQAAKLSKPTLENLTPVVLRPEIRKPEVLRPETPRPVDIGSGGFGDVGALESLRGNADLAYILSMEPCGHCLIINNVNFCRESGLRTRTGSNIDCEKLRRRFSSLHFMVEVKGDLTAKKMVLALLELAQQDHGALDCCVVVILSHGCQASHLQFPGAVYGTDGCPVSVEKIVNIFNGTSCPSLGGKPKLFFIQACGGEQKDHGFEVASTSPEDESPGSNPEPDATPFQEGLRTFDQLDAISSLPTPSDIFVSYSTFPGFVSWRDPKSGSWYVETLDDIFEQWAHSEDLQSLLLRVANAVSVKGIYKQMPGCFNFLRKKLFFKTS
In the case of B1, the “procaspase-9 cleavage in an in vitro activation assay (neutrophil cytosol, cytochrome c, dATP; western blot of caspase-9)” value is reported as “when purified PCNA was added to the mixture, procaspase-9 cleavage was delayed, with persistent procaspase-9 (47 kDa) and diminished 37-kDa fragment detection”.
